Experimental data taken from the supplement of paper PMC11316812.
± gives the standard deviation of the averaged measurements.

Columns and labels:
MCF7 = test: percentage of EdU-negative (G0-arrested) nuclei per well, 72 h; higher = more G0 arrest; settings: reference: sequence is the full UniProt precursor, the tested protein was the secreted form or ectodomain
hTERT-HMEC = test: as above; settings: reference: sequence is the full UniProt precursor, the tested protein was the secreted form or ectodomain
[1] = protein concentration 0.0272075 µM
[2] = protein concentration 0.272075 µM
[3] = protein concentration 0.03125 µM
[4] = protein concentration 0.3125 µM
[5] = protein concentration 0.0351429 µM
[6] = protein concentration 0.351429 µM
[7] = protein concentration 0.0225 µM
[8] = protein concentration 0.0107825 µM
[9] = protein concentration 0.107825 µM
[10] = protein concentration 0.019925 µM
[11] = protein concentration 0.19925 µM
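Further: secreted proteins added to cultured cells, EdU pulse at the end, nuclei found by Hoechst imaging, EdU status from nuclear versus surrounding ring intensity ratio, PBS as neutral control.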

**Q.** Which results are given for “MTATEALLRVLLLLLAFGHSTYGAECFPACNPQNGFCEDDNVCRCQPGWQGPLCDQCVTSPGCLHGLCGEPGQCICTDGWDGELCDRDVRACSSAPCANNRTCVSLDDGLYECSCAPGYSGKDCQKKDGPCVINGSPCQHGGTCVDDEGRASHASCLCPPGFSGNFCEIVANSCTPNPCENDGVCTDIGGDFRCRCPAGFIDKTCSRPVTNCASSPCQNGGTCLQHTQVSYECLCKPEFTGLTCVKKRALSPQQVTRLPSGYGLAYRLTPGVHELPVQQPEHRILKVSMKELNKKTPLLTEGQAICFTILGVLTSLVVLGTVGIVFLNKCETWVSNLRYNHMLRKKKNLLLQYNSGEDLAVNIIFPEKIDMTTFSKEAGDEEI”?
**A.** percentage of EdU-negative (MCF7; [1]): 27.1 ± 2.7%; percentage of EdU-negative (MCF7; [2]): 26.7 ± 1.4%; percentage of EdU-negative (hTERT-HMEC; [1]): 4.9 ± 0.42%; percentage of EdU-negative (hTERT-HMEC; [2]): 6.02 ± 1.2%

**Q.** For “MTCKMSQLERNIETIINTFHQYSVKLGHPDTLNQGEFKELVRKDLQNFLKKENKNEKVIEHIMEDLDTNADKQLSFEEFIMLMARLTWASHEKMHEGDEGPGHHHKPGLGEGTP”, which “percentage of EdU-negative” value (MCF7; [3]) is on record?
**A.** 26 ± 1.1%

**Q.** And the “percentage of EdU-negative” value (MCF7; [4])?
**A.** 24.6 ± 0.91%

**Q.** What about the “percentage of EdU-negative” value (hTERT-HMEC; [3]) of the same sequence?
**A.** 5.56 ± 0.9%

**Q.** And the “percentage of EdU-negative” value (hTERT-HMEC; [4])?
**A.** 5.25 ± 0.34%

**Q.** “MTDRQTDTAPSPSYHLLPGRRRTVDAAASRGQGPEPAPGGGVEGVGARGVALKLFVQLLGCSRFGGAVVRAGEAEPSGAARSASSGREEPQPEEGEEEEEKEEERGPQWRLGARKPGSWTGEAAVCADSAPAARAPQALARASGRGGRVARRGAEESGPPHSPSRRGSASRAGPGRASETMNFLLSWVHWSLALLLYLHHAKWSQAAPMAEGGGQNHHEVVKFMDVYQRSYCHPIETLVDIFQEYPDEIEYIFKPSCVPLMRCGGCCNDEGLECVPTEESNITMQIMRIKPHQGQHIGEMSFLQHNKCECRPKKDRARQEKKSVRGKGKGQKRKRKKSRYKSWSVPCGPCSERRKHLFVQDPQTCKCSCKNTDSRCKARQLELNERTCRCDKPRR” was tested. Which “percentage of EdU-negative” value (MCF7; [3]) did it give?
**A.** 27 ± 1.3%

**Q.** What about the “percentage of EdU-negative” value (MCF7; [4]) of the same sequence?
**A.** 25.1 ± 0.32%

**Q.** What about the “percentage of EdU-negative” value (hTERT-HMEC; [3]) of the same sequence?
**A.** 5.12 ± 1.2%

**Q.** And the “percentage of EdU-negative” value (hTERT-HMEC; [4])?
**A.** 5.48 ± 0.89%

**Q.** Which “percentage of EdU-negative” value (MCF7; [5]) does the source give for “MTGDCMPVLVLMAAVLTVTGAVPVARLRGALPDARGCHIAQFKSLSPQELQAFKRAKDALEESLLLKDCKCRSRLFPRTWDLRQLQVRERPVALEAELALTLKVLEATADTDPALGDVLDQPLHTLHHILSQLRACIQPQPTAGPRTRGRLHHWLHRLQEAPKKESPGCLEASVTFNLFRLLTRDLNCVASGDLCV [Q8IZI9]” here?
**A.** 24 ± 2.3%

**Q.** And the “percentage of EdU-negative” value (MCF7; [6])?
**A.** 28.6 ± 4%

**Q.** What about the “percentage of EdU-negative” value (hTERT-HMEC; [5]) of the same sequence?
**A.** 6.75 ± 0.89%

**Q.** And the “percentage of EdU-negative” value (hTERT-HMEC; [6])?
**A.** 10.9 ± 2.5%

**Q.** What does the source list for “MTGLCGYSAPDMRGLRLIMIPVELLLCYLLLHPVDATSYGKQTNVLMHFPLSLESQTPSSDPLSCQFLHPKSLPGFSHMAPLPKFLVSLALRNALEEAGCQADVWALQLQLYRQGGVNATQVLIQHLRGLQKGRSTERNVSVEALASALQLLAREQQSTGRVGRSLPTEDCENEKEQAVHNVVQLLPGVGTFYNLGTALYYATQNCLGKARERGRDGAIDLGYDLLMTMAGMSGGPMGLAISAALKPALRSGVQQLIQYYQDQKDANISQPETTKEGLRAISDVSDLEETTTLASFISEVVSSAPYWGWAIIKSYDLDPGAGSLEI”?
**A.** percentage of EdU-negative (MCF7; [7]): 26.5 ± 0.29%; percentage of EdU-negative (MCF7; protein concentration 0.225 µM): 30.7 ± 0.48%; percentage of EdU-negative (hTERT-HMEC; [7]): 5.166 ± 0.011%; percentage of EdU-negative (hTERT-HMEC; protein concentration 0.225 µM): 19.7 ± 0.93%

**Q.** What does the source list for “MTILFLTMVISYFGCMKAAPMKEANIRGQGGLAYPGVRTHGTLESVNGPKAGSRGLTSLADTFEHVIEELLDEDQKVRPNEENNKDADLYTSRVMLSSQVPLEPPLLFLLEEYKNYLDAANMSMRVRRHSDPARRGELSVCDSISEWVTAADKKTAVDMSGGTVTVLEKVPVSKGQLKQYFYETKCNPMGYTKEGCRGIDKRHWNSQCRTTQSYVRALTMDSKKRIGWRFIRIDTSCVCTLTIKRGR”?
**A.** percentage of EdU-negative (MCF7; [8]): 26.6 ± 0.45%; percentage of EdU-negative (MCF7; [9]): 28.7 ± 1.2%; percentage of EdU-negative (hTERT-HMEC; [8]): 5.167 ± 0.044%; percentage of EdU-negative (hTERT-HMEC; [9]): 7.06 ± 0.31%

**Q.** With “MTILGTTFGMVFSLLQVVSGESGYAQNGDLEDAELDDYSFSCYSQLEVNGSQHSLTCAFEDPDVNITNLEFEICGALVEVKCLNFRKLQEIYFIETKKFLLIGKSNICVKVGEKSLTCKKIDLTTIVKPEAPFDLSVVYREGANDFVVTFNTSHLQKKYVKVLMHDVAYRQEKDENKWTHVNLSSTKLTLLQRKLQPAAMYEIKVRSIPDHYFKGFWSEWSPSYYFRTPEINNSSGEMDPILLTISILSFFSVALLVILACVLWKKRIKPIVWPSLPDHKKTLEHLCKKPRKNLNVSFNPESFLDCQIHRVDDIQARDEVEGFLQDTFPQQLEESEKQRLGGDVQSPNCPSEDVVITPESFGRDSSLTCLAGNVSACDAPILSSSRSLDCRESGKNGPHVYQDLLLSLGTTNSTLPPPFSLQSGILTLNPVAQGQPILTSLGSNQEEAYVTMSSFYQNQ” as the sequence, how does the “percentage of EdU-negative” value (MCF7; [10]) read?
**A.** 28.1 ± 1.4%

**Q.** And the “percentage of EdU-negative” value (MCF7; [11])?
**A.** 27.6 ± 2.4%

**Q.** What about the “percentage of EdU-negative” value (hTERT-HMEC; [10]) of the same sequence?
**A.** 5.3 ± 0.72%

**Q.** What about the “percentage of EdU-negative” value (hTERT-HMEC; [11]) of the same sequence?
**A.** 5.96 ± 0.062%

**Q.** For “MTLFPVLLFLVAGLLPSFPANEDKDPAFTALLTTQTQVQREIVNKHNELRRAVSPPARNMLKMEWNKEAAANAQKWANQCNYRHSNPKDRMTSLKCGENLYMSSASSSWSQAIQSWFDEYNDFDFGVGPKTPNAVVGHYTQVVWYSSYLVGCGNAYCPNQKVLKYYYVCQYCPAGNWANRLYVPYEQGAPCASCPDNCDDGLCTNGCKYEDLYSNCKSLKLTLTCKHQLVRDSCKASCNCSNSIY”, which “percentage of EdU-negative” value (MCF7; [7]) is on record?
**A.** 24.2 ± 0.4%

**Q.** And the “percentage of EdU-negative” value (MCF7; protein concentration 0.225 µM)?
**A.** 27.5 ± 3%

**Q.** And the “percentage of EdU-negative” value (hTERT-HMEC; [7])?
**A.** 4.68 ± 0.23%

**Q.** And the “percentage of EdU-negative” value (hTERT-HMEC; protein concentration 0.225 µM)?
**A.** 4.83 ± 0.81%

**Q.** What does the source list for “MTLILTSLLFFGLSLGPRTRVQAENLLKPILWAEPGPVITWHNPVTIWCQGTLEAQGYRLDKEGNSMSRHILKTLESENKVKLSIPSMMWEHAGRYHCYYQSPAGWSEPSDPLELVVTAYSRPTLSALPSPVVTSGVNVTLRCASRLGLGRFTLIEEGDHRLSWTLNSHQHNHGKFQALFPMGPLTFSNRGTFRCYGYENNTPYVWSEPSDPLQLLVSGVSRKPSLLTLQGPVVTPGENLTLQCGSDVGYIRYTLYKEGADGLPQRPGRQPQAGLSQANFTLSPVSRSYGGQYRCYGAHNVSSEWSAPSDPLDILIAGQISDRPSLSVQPGPTVTSGEKVTLLCQSWDPMFTFLLTKEGAAHPPLRLRSMYGAHKYQAEFPMSPVTSAHAGTYRCYGSRSSNPYLLSHPSEPLELVVSGATETLNPAQKKSDSKTAPHLQDYTVENLIRMGVAGLVLLFLGILLFEAQHSQRSPPRCSQEANSRKDNAPFRVVEPWEQI”?
**A.** percentage of EdU-negative (MCF7; [7]): 28.3 ± 0.36%; percentage of EdU-negative (MCF7; protein concentration 0.225 µM): 29 ± 2.8%; percentage of EdU-negative (hTERT-HMEC; [7]): 4.68 ± 0.17%; percentage of EdU-negative (hTERT-HMEC; protein concentration 0.225 µM): 5.06 ± 0.98%

**Q.** Which results are given for “MTLLLLPLLLASLLASCSCNKANKHKPWIEAEYQGIVMENDNTVLLNPPLFALDKDAPLRYAGEICGFRLHGSGVPFEAVILDKATGEGLIRAKEPVDCEAQKEHTFTIQAYDCGEGPDGANTKKSHKATVHVRVNDVNEFAPVFVERLYRAAVTEGKLYDRILRVEAIDGDCSPQYSQICYYEILTPNTPFLIDNDGNIENTEKLQYSGERLYKFTVTAYDCGKKRAADDAEVEIQVKPTCKPSWQGWNKRIEYAPGAGSLALFPGIRLETCDEPLWNIQATIELQTSHVAKGCDRDNYSERALRKLCGAATGEVDLLPMPGPNANWTAGLSVHYSQDSSLIYWFNGTQAVQVPLGGPSGLGSGPQDSLSDHFTLSFWMKHGVTPNKGKKEEETIVCNTVQNEDGFSHYSLTVHGCRIAFLYWPLLESARPVKFLWKLEQVCDDEWHHYALNLEFPTVTLYTDGISFDPALIHDNGLIHPPRREPALMIGACWTEEKNKEKEKGDNSTDTTQGDPLSIHHYFHGYLAGFSVRSGRLESREVIECLYACREGLDYRDFESLGKGMKVHVNPSQSLLTLEGDDVETFNHALQHVAYMNTLRFATPGVRPLRLTTAVKCFSEESCVSIPEVEGYVVVLQPDAPQILLSGTAHFARPAVDFEGTNGVPLFPDLQITCSISHQVEAKKDESWQGTVTDTRMSDEIVHNLDGCEISLVGDDLDPERESLLLDTTSLQQRGLELTNTSAYLTIAGVESITVYEEILRQARYRLRHGAALYTRKFRLSCSEMNGRYSSNEFIVEVNVLHSMNRVAHPSHVLSSQQFLHRGHQPPPEMAGHSLASSHRNSMIPSAATLIIVVCVGFLVLMVVLGLVRIHSLHRRVSGAGGPPGASSDPKDPDLFWDDSALTIIVNPMESYQNRQSCVTGAVGGQQEDEDSSDSEVADSPSSDERRIIETPPHRY [Q9BQT9]”?
**A.** percentage of EdU-negative (MCF7; [7]): 25.2 ± 1.4%; percentage of EdU-negative (MCF7; protein concentration 0.225 µM): 26.1 ± 0.34%; percentage of EdU-negative (hTERT-HMEC; [7]): 4.44 ± 0.21%; percentage of EdU-negative (hTERT-HMEC; protein concentration 0.225 µM): 5.534 ± 0.019%

**Q.** For “MTLLPGLLFLTWLHTCLAHHDPSLRGHPHSHGTPHCYSAEELPLGQAPPHLLARGAKWGQALPVALVSSLEAASHRGRHERPSATTQCPVLRPEEVLEADTHQRSISPWRYRVDTDEDRYPQKLAFAECLCRGCIDARTGRETAALNSVRLLQSLLVLRRRPCSRDGSGLPTPGAFAFHTEFIHVPVGCTCVLPRSV [Q9P0M4]”, which “percentage of EdU-negative” value (MCF7; [3]) is on record?
**A.** 26.7 ± 2.1%

**Q.** And the “percentage of EdU-negative” value (MCF7; [4])?
**A.** 26.1 ± 1.7%

**Q.** And the “percentage of EdU-negative” value (hTERT-HMEC; [3])?
**A.** 5.54 ± 0.085%

**Q.** What about the “percentage of EdU-negative” value (hTERT-HMEC; [4]) of the same sequence?
**A.** 5.3 ± 0.055%
